Measured values as given in patent US20160038607A1 (UNIVERSITY OF NOTRE DAME DU LAC, published 2016).
Bridges are numbered along the chain shown (N, C = ends). Where no end group is shown, it is not given here.

Assays:
[1] = biological target: T1, Human Epidermal Growth Factor Receptor 2 (HER2) (human, UniProt P04626 23-1255); test: flow cytometry, fluorescein labeled peptide on SK-BR-3 cells, on ice
T1 construct: whole, on cells; also called HER2 receptor
Procedure: (§1) For HER2 expression assays, cells were incubated with primary antibody in binding buffer on ice for 1 hour and washed twice. Fluorescein conjugated secondary antibody was added for 1 hour on ice, samples were washed, and analyzed on Guava easyCyte 8HT flow cytometer (Millipore). Isotype matched antibodies were used as negative controls. For cell-based peptide binding assays, cells were incubated with increasing concentrations of fluorescein-conjugated peptides for 2 hours on ice. Samples were washed twice and analyzed on Guava easyCyte 8HT flow cytometer.

[2] = biological target: T1, Human Epidermal Growth Factor Receptor …; test: flow cytometry, fluorescein labeled peptide on BT-474 cells, on ice
Procedure: as §1

[3] = biological target: T1, Human Epidermal Growth Factor Receptor …; test: cell-based or functional assay

Binder: YCDGFYACYMDV (disulfide 2-8 (inferred); also: fluorescein label, position not given here) [HER2-antagonist peptide (HER2-pep), fluorescein labeled]
- Kd [1]: 1750 nM
- Kd [2]: 1970 nM

B1: HER2-pep-EG12-PA conjugate on PEG350 coated liposomes (95:10:3:2 HSPC:CHOL:PEG350:HER2-pep) (peptide)
peptide: YCDGFYACYMDV
modifications: disulfide 2-8 (inferred); not fully specified (N-terminus); also: displayed on PEG350-coated liposomes
- cellular uptake of liposomes at 2% peptide density, fold enhancement [3]: ~10 fold
- cellular uptake of liposomes by BT-474 and SK-BR-3 cells, 3 h (flow cytometry), fold greater than control [3]: ~9 fold
- cellular uptake of liposomes by BT-474 cells at 24 h, fold greater than control liposomes [3]: ~5 fold
- cellular uptake of liposomes by SK-BR-3 cells at 24 h, fold greater than control liposomes [3]: ~4 fold
